From patent publication US20190083615A1 (Merck Sharp & Dohme, published 2019)
Several values for one entry are separate records, joined by “and”; a condition that tells them apart may be missing. Identical values can stand only once.

T1: human LAG3 (Lymphocyte Activation Gene-3) expressed on cells (human, UniProt P18627 23-525)
T1 construct: also called hLAG3; CD223
T1 sequence: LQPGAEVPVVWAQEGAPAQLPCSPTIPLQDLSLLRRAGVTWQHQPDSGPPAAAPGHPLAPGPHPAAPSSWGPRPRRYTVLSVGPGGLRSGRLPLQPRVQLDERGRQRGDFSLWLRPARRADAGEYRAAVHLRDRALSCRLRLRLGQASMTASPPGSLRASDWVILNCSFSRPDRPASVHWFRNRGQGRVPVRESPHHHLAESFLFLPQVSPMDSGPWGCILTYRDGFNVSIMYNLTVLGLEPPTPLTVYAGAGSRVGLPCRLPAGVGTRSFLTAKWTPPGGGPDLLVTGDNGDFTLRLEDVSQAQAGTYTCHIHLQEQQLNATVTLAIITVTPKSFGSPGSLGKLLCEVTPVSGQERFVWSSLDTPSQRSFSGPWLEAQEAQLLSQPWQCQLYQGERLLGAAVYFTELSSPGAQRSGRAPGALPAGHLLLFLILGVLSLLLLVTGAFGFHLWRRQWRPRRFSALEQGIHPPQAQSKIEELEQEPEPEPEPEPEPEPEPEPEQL

T2: human LAG3-huFc recombinant protein (human, UniProt P18627 23-450, limits assumed, biotinylated in the runs with humanized and chimeric antibodies (Example 11))
T2 construct: also called human LAG3-Fc; huLAG3-huFc; not shown: human Fc
T2 sequence: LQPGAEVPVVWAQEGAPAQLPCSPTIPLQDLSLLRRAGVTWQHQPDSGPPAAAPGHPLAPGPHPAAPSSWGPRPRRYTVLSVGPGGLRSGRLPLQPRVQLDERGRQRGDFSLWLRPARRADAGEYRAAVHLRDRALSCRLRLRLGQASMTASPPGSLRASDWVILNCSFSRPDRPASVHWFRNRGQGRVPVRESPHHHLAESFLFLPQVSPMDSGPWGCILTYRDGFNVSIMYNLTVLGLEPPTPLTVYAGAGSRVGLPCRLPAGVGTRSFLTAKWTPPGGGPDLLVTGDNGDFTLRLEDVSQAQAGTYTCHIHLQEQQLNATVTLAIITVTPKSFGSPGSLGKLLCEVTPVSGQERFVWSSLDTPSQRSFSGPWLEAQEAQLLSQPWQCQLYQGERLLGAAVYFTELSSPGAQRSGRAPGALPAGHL

T3: Human LAG3-His: [VEGF leader]-LAG3_H-[His9G] (human, UniProt P18627 23-450)
T3 construct: also called human LAG3-His tagged recombinant protein; hLAG3-His
T3 sequence: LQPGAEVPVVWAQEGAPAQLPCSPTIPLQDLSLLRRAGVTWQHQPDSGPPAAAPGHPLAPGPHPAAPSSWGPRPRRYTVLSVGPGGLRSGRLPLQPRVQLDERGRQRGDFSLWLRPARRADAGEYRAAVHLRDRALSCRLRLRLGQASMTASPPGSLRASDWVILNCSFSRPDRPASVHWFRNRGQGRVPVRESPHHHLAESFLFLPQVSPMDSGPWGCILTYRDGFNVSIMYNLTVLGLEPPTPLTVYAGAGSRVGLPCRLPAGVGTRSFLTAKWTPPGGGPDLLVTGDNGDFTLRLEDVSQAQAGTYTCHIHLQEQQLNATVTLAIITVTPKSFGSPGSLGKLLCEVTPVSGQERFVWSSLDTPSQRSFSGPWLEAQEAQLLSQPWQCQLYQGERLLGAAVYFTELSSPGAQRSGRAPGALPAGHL


Legend:
[1] = molecular target: T1, human LAG3 (Lymphocyte Activation …); assay: cell based KinExA, BaF/3 cells transfected with human LAG3 (n=2)
Method: The affinities of the LAG3 antibodies for LAG3 were determined using a cell based Kinetic Exclusion Assay (KinExA). Cell based KinExA can be used to measure the affinity of a molecule for a binding partner on a cell surface (Rathanaswami et al. Analylitical Biochemistry 373(1): 52-60 (2008); Xie et al. J. Immunol. Methods 304 (1-2): 1-14 (2005)). In this case, BaF/3 cells were stably transfected with human and cynomolgus monkey LAG3 proteins. Transfected cells or the parental BaF/3 control cell line were grown to a density of 1.7×10⁶ to 3.2×10⁶ cells per ml at 37° C., 120 RPM, 5% CO₂, in 1X RPMI 1640 media with 10% FBS, 10 ng/ml IL-3, 5 μg/ml puromycin. Cells were concentrated, mixed with 15 pM or 150 pM antibody in cell culture media and incubated 24 to 48 hours at room temperature while rotating at 20 to 30 RPM. Cells were present at a top concentration of 2×10⁷ cells per ml (parental BaF/3 or cynomolgus LAG3 transfectants) or 1×10⁷ cells per ml (human LAG3 transfectants) and diluted in a 2-fold, 18 member series. The cells were pelleted and free antibody in the supernatant was measured using a KinExA 3200 instrument (Sapidyne, Id., USA). […] Antibody on the beads was labeled with 1.5 μg/ml Alexa Fluor® 647 conjugated goat anti-human (Fab′)₂ (Jackson ImmunoResearch Laboratories), washed and the fluorescent signal was read all using the KinExA™ 3200. The data from the 15 pM and 150 pM concentrations of each antibody were fit simultaneously using KinExA™ Pro n-Curve Analysis software version 4.0.11 (Sapidyne).

[2] = molecular target: T2, human LAG3-huFc recombinant protein; assay: flow cytometry, blockade of biotinylated human LAG3-huFc binding to MHC class II on Daudi cells, streptavidin-PE
Method: (§1) Mouse anti-human LAG3 and humanized anti-LAG3 clones were tested for their ability to block hLAG3 interaction with human MHC Class II. Daudi cells (ATCC #CCL-213) were used as a cell line positive for human MHC class II expression. Daudi cells were blocked with 10 ug/ml of goat IgG in HBSS and 2% BCS on ice for 30 minutes and 0.5×10⁶ cells/sample were aliquoted into a 96-well V-bottom plate and blocking buffer removed. […] Cells were pelleted by centrifugation at 1200 rpm and washed twice with HBSS/2% BCS. […] Cells were washed twice as described above, resuspended in HBSS/2% BCS and read on the FACSCalibur.

[3] = molecular target: T2, human LAG3-huFc recombinant protein; assay: flow cytometry, blockade of human LAG3-huFc (2 ug/ml) binding to MHC class II on Daudi cells
Method: as §1, with “LAG3” for “LAG3 and humanized anti-LAG3”

[4] = molecular target: T3, Human LAG3-His: [VEGF …; assay: SPR (Biacore T200), antibody captured on goat anti-mouse Fc, human LAG3-His as analyte, 1:1 Langmuir fit
Method: Mouse anti-human LAG3 clones listed above were injected over the immobilized goat anti-mouse surfaces at 1 ug/mL for a capture level of 40 RU. HBS-EP+ buffer (BR-1006-69) was used as the running buffer with a flow rate of 30 μL/min.
Varying concentrations of human LAG3-His protein ranging from 0.15 nM to 18.8 nM, at a flow rate of 40 μL/min were injected over the antibody surfaces.
Background subtraction binding sensorgrams were used for analyzing the rate constant of association (kₐ) and dissociation (kd), and the equilibrium dissociation constant KD. The resulting data sets were fitted with a 1:1 Langmuir Binding Model using the Biacore T200 evaluation software (version 2.0).

[5] = molecular target: T1, human LAG3 (Lymphocyte Activation …); assay: cell-based or functional assay
[6] = molecular target: T2, human LAG3-huFc recombinant protein; assay: flow cytometry, blockade of human LAG3-huFc binding to MHC class II on Daudi cells
Method: as §1, with “LAG3” for “LAG3 and humanized anti-LAG3”

Row | Binder | Kd [1] | IC50 [2] | IC50 [3] | Kd [4] | koff [4] | kon [4] | EC50 for IL-2 rescue, hLAG3-3A9 T cell system [5] | IC50 [6]
1 | 22D2 chimera: chimeric antibody [LAG3_H] mAb (LB145.22D2.E1.D1 (VH0/VL0) Geneart) IgG4 S228P/kappa (PX) (antibody, V domains shown, It is described as the parental LB145.22D2.E1.D1 VH0/VL0 on human IgG4 with the hinge-stabilizing S228P mutation and kappa; also called Chimeric 22D2; chimeric 22D2) VH: EVLLLQSGPELVKPGTSVKIPCKASGYTFTDYNVDWVKQRHGKGLEWIGDINPNNGGTIYSQKFKGKATLTVDKSSSTAFMELRSLTSEDTAVYFCARNYRWFGAMDHWGQGTSVTVSS VL: DIVLTQSPASLAVSPGQRATISCKASQSLDYEGDSDMNWYQQKPGQPPRLLISGASNLESGIPARFSGSGSGTDFTVNIHPVEEEDAATYYCQQSTEDPRTFGGGTKLEIK | 0.003 nM | 2.5 nM |  |  |  |  |  | 
2 | mouse anti-human LAG3 antibody LB148.4A10.1H1 (antibody, mouse IgG2a, V domains shown, also called Lag3 clone 4A10) VH: EVQLLQSGAELVRSGASVKLSCTASGFNIEDYYMHWMKQRPEQGLEWIGWIDPVNGDTEYAPKFQGKATMTADTSSNTAYLHLNSLTSEDTAVYYCNFYDGYLFAFWGQGTLVTVSA VL: DIVLTQAAPSVPVTPGESVSISCRSSKSLLHSDGNTYLYWLLQRPGQSPQLLIYRMSNLASGVPDRFSGSGSGTVFTLRISRLEAEDVGIYYCMQHLEYPFTFGGGTKLEIK |  |  | 1.9 nM | 0.0903 nM | 0.000113 s⁻¹ | 1.25e+06 M⁻¹ s⁻¹ | 2.83 nM and 2.96 nM | 1.9 nM

Second part, the binder after the results:

Row | Kd [1] | IC50 [2] | IC50 [3] | Kd [4] | koff [4] | kon [4] | EC50 for IL-2 rescue, hLAG3-3A9 T cell system [5] | IC50 [6] | Binder
3 |  |  | 2.8 nM | 0.0147 nM | 0.000109 s⁻¹ | 7.43e+06 M⁻¹ s⁻¹ | 1.74 nM and 1.83 nM | 2.8 nM | mouse anti-human LAG3 antibody LB148.19E8.G1.1A1 (antibody, mouse IgG2b, V domains shown, also called Lag3 clone 19E8) VH: QIRLQQSGPELVKPGASVKISCKASGSSFTDYYINWVKQKPGQGLEWIGWIYPGSGNSIYNENFKAKATLTVDTSSSTAYMHLSSLTSEDTAVYFCAREADYDDALDYWGQGTSVTVSS VL: HILLTQSPAILSVSPGERVSFSCRASQSIGTSIHWYQQRTNGSPRLLIKYASESISGIPSRFSGSGSGTDFTLSINSVESEDIADYYCQQSNSWPTYTFGGGTKLEIK
4 |  |  | 2 nM | 1.47 nM | 0.00192 s⁻¹ | 1.31e+06 M⁻¹ s⁻¹ | 3.56 nM and 4.06 nM | 2 nM | mouse anti-human LAG3 antibody LB148.11C9.1C1 (antibody, mouse IgG1, V domains shown, also called Lag3 clone 11C9) VH: QVQLQQPGAELVMPGASAKMSCKASGYTLTDYWMHWVKQRPGQGLEWIGAIDISDSYSSYNQKFKGKATLTVDESSSTAYMQLTSLTSEDSAVYYCARSPFYNSRGGNYFDYWGQGTTLTVSS VL: DIQMTQTTSSLSASLGDRVTISCRASQDISNYLNWYQQKPDGTVKLLIYYTSRLHSGVPSRFSGSGSGTDYSLTISNLEQEDIATYFCQQGDTLPPWTFGGGTKLEIK
